Laboratory results published in paper PMC3160658.

Key:
[1] = target: T1, RAD52 Y104D (Homo sapiens, UniProt P43351 1-418, Y104D); assay: EMSA
T1 sequence: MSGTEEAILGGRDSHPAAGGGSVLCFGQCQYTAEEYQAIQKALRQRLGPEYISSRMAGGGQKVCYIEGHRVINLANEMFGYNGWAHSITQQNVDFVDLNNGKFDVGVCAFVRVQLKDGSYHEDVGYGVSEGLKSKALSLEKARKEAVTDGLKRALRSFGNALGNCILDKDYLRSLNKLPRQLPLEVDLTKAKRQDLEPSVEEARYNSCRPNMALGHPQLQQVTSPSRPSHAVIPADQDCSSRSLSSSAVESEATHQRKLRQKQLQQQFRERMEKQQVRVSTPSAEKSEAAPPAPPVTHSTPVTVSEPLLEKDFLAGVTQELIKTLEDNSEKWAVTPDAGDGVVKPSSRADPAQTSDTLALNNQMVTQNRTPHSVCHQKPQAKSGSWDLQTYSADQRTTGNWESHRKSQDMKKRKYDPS

[2] = target: RAD52;RPA (Homo sapiens;human?, UniProt P43351;P27694;P15927;P35244 1-418;1-616;1-270;1-121, |); assay: FRET titration
RAD52;RPA, sequence (P27694 whole entry, chain 2 of 3): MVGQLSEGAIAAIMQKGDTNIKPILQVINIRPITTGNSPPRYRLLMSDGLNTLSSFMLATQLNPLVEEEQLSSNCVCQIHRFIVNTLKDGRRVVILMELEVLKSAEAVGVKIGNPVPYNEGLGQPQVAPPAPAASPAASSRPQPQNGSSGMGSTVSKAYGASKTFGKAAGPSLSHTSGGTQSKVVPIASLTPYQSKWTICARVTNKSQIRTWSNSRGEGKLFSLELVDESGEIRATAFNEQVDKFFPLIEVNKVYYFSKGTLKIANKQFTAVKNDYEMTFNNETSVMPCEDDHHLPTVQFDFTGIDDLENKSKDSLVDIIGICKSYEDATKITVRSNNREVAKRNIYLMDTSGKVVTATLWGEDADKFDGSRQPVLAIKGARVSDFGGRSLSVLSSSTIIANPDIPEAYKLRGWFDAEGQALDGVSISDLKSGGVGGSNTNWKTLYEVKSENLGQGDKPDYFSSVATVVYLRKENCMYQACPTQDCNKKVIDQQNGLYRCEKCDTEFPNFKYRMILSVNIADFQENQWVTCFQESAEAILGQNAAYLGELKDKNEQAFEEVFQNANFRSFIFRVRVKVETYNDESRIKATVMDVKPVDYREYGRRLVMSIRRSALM
RAD52;RPA, sequence (P15927 whole entry, chain 3 of 3): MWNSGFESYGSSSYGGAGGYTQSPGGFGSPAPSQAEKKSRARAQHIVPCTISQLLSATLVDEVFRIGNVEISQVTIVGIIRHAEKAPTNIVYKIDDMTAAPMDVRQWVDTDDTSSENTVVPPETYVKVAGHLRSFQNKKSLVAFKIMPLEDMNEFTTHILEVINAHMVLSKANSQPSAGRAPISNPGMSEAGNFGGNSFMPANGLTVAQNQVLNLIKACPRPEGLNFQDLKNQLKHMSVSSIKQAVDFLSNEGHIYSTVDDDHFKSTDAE
RAD52;RPA, sequence (P35244 whole entry, chain 4 of 3): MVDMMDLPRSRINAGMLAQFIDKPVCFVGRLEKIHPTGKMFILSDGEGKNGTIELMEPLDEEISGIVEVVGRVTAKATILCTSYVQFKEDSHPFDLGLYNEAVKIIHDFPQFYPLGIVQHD

B1: Cy5-(dT)30-Cy3 (ssDNA)
DNA: TTTTTTTTTTTTTTTTTTTTTTTTTTTTTT
binding result [1]: binds
binding result [2]: binds
